Values quoted from earlier work in US8071839B2, “Transgenic mouse comprising a polynucleotide encoding human or humanized C5aR and methods of production and use” (G2 Inflammation Pty Ltd, priority 2003, dated 2011).

B1: C5a: anaphylatoxin fragment of complement protein C5, natural ligand of C5aR (protein, UniProt P01031 678-751, looked up)
C5a anaphylatoxin: TLQKKIEEIAAKYKHSVVKKCCYDGACVNNDETCEQRAARISLGPRCIKAFTECCVVASQLRANISHKDMQLGR
modifications: C5a anaphylatoxin
notes: anaphylatoxin fragment of complement protein C5, natural ligand of C5aR
B2: murine C5a: mouse C5a, ligand that binds human C5aR (protein, UniProt P06684 679-755, looked up)
C5a anaphylatoxin: NLHLLRQKIEEQAAKYKHSVPKKCCYDGARVNFYETCEERVARVTIGPLCIRAFNECCTIANKIRKESPHKPVQLGR
modifications: C5a anaphylatoxin

Key:
C5aR [1] = target: T1, C5aR (Homo sapiens, UniProt P21730); conditions: read-out: Kd of C5aR for C5a
T1 sequence (P21730 1-350): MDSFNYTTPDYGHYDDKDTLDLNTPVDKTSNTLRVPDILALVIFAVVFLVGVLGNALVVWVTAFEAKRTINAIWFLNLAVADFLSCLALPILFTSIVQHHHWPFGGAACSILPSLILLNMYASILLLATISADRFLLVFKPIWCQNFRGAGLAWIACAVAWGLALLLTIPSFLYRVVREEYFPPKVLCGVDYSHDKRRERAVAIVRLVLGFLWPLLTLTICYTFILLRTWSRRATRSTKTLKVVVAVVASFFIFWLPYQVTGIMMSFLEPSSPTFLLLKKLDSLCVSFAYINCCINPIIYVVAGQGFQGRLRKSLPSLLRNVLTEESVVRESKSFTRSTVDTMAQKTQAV

C5aR [2] = target: T1, C5aR

Molecule | Kd (C5aR [1]) | binding affinity for human C5aR (C5aR [2])
B1 | ~1 nM | –
B2 | – | high affinity
